Source: patent US20140213513A1 (Sanofi, priority 2012, published 2014)
*1 amine or outer side, *2 acyl side, *3 side chain or, on linkers, in order; H or OH if unused. Where no end group is shown, it is not given here. Side-chain parts run from the residue outwards. [ ]: non-standard residue; d: D form. The star is where a group is joined. γGlu = O=C(O)[C@H](CCC(=O)[*:2])N[*:1]; Palmitoyl = CCCCCCCCCCCCCCCC(=O)*; Aib = CC(C)(N)C(=O)O

T1: human GIP receptor (human, UniProt P48546 22-466)
T1 sequence (looked up): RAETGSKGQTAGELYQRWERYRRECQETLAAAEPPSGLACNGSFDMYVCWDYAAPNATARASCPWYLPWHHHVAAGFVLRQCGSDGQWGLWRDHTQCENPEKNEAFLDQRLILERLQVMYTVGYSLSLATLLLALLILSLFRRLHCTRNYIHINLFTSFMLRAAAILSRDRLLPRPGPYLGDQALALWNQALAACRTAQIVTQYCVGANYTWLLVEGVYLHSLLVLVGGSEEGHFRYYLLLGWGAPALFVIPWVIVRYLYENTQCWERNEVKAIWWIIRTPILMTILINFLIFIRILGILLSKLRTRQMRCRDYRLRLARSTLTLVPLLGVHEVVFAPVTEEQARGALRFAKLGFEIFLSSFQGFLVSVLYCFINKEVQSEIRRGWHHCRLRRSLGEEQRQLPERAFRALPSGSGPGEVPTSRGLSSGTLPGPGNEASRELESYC


Legend:
Assay in all cases: cell-based or functional assay
[1] = target: T1, human GIP receptor
[2] = target: human glucagon receptor (human, UniProt P47871 26-477)
human glucagon receptor, sequence (P47871 26-477): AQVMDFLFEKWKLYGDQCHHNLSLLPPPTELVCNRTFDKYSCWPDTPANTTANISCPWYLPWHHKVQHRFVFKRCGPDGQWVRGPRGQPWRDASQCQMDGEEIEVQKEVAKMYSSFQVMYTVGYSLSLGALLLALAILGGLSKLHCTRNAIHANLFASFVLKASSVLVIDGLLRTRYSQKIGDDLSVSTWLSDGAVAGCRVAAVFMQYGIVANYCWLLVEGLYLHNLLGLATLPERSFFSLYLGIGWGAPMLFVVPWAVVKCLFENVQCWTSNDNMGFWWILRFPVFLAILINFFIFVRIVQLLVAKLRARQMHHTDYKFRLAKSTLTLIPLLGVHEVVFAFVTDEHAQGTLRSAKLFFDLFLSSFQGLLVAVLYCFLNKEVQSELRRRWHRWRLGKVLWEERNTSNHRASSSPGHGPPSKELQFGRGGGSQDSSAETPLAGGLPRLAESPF

[3] = target: human GLP-1 receptor (human, UniProt P43220 24-463)

Binder | EC50 hGIP R [1] | EC50 hGLUC R [2] | EC50 hGLP-1 R [3]
Y[Aib]QGTFTSDLSIQK([γGlu-Palmitoyl])DSRRAQDFIEWLKAGGPSSGAPPPS-NH2 (N-terminus assumed; SMILES CCCCCCCCCCCCCCCC(=O)N[C@@H](CCC(=O)NCCCC[C@H](NC(=O)[C@H](CCC(N)=O)NC(=O)[C@@H](NC(=O)[C@H](CO)NC(=O)[C@H](CC(C)C)NC(=O)[C@H](CC(=O)O)NC(=O)[C@H](CO)NC(=O)[C@@H](NC(=O)[C@H](Cc1ccccc1)NC(=O)[C@@H](NC(=O)CNC(=O)[C@H](CCC(N)=O)NC(=O)C(C)(C)NC(=O)[C@@H](N)Cc1ccc(O)cc1)[C@@H](C)O)[C@@H](C)O)[C@@H](C)CC)C(=O)N[C@@H](CC(=O)O)C(=O)N[C@@H](CO)C(=O)N[C@@H](CCCNC(=N)N)C(=O)N[C@@H](CCCNC(=N)N)C(=O)N[C@@H](C)C(=O)N[C@@H](CCC(N)=O)C(=O)N[C@@H](CC(=O)O)C(=O)N[C@@H](Cc1ccccc1)C(=O)N[C@H](C(=O)N[C@@H](CCC(=O)O)C(=O)N[C@@H](Cc1c[nH]c2ccccc12)C(=O)N[C@@H](CC(C)C)C(=O)N[C@@H](CCCCN)C(=O)N[C@@H](C)C(=O)NCC(=O)NCC(=O)N1CCC[C@H]1C(=O)N[C@@H](CO)C(=O)N[C@@H](CO)C(=O)NCC(=O)N[C@@H](C)C(=O)N1CCC[C@H]1C(=O)N1CCC[C@H]1C(=O)N1CCC[C@H]1C(=O)N[C@@H](CO)C(N)=O)[C@@H](C)CC)C(=O)O) [exendin-4 peptide analogue SEQ ID NO: 52] | 182 pM | 13.3 pM | 25.6 pM
Y[Aib]QGTFTSDLSIQK([γGlu-Palmitoyl])DKRRAQDFIEWLKAGGPSSGAPPPS-NH2 (N-terminus assumed; SMILES CCCCCCCCCCCCCCCC(=O)N[C@@H](CCC(=O)NCCCC[C@H](NC(=O)[C@H](CCC(N)=O)NC(=O)[C@@H](NC(=O)[C@H](CO)NC(=O)[C@H](CC(C)C)NC(=O)[C@H](CC(=O)O)NC(=O)[C@H](CO)NC(=O)[C@@H](NC(=O)[C@H](Cc1ccccc1)NC(=O)[C@@H](NC(=O)CNC(=O)[C@H](CCC(N)=O)NC(=O)C(C)(C)NC(=O)[C@@H](N)Cc1ccc(O)cc1)[C@@H](C)O)[C@@H](C)O)[C@@H](C)CC)C(=O)N[C@@H](CC(=O)O)C(=O)N[C@@H](CCCCN)C(=O)N[C@@H](CCCNC(=N)N)C(=O)N[C@@H](CCCNC(=N)N)C(=O)N[C@@H](C)C(=O)N[C@@H](CCC(N)=O)C(=O)N[C@@H](CC(=O)O)C(=O)N[C@@H](Cc1ccccc1)C(=O)N[C@H](C(=O)N[C@@H](CCC(=O)O)C(=O)N[C@@H](Cc1c[nH]c2ccccc12)C(=O)N[C@@H](CC(C)C)C(=O)N[C@@H](CCCCN)C(=O)N[C@@H](C)C(=O)NCC(=O)NCC(=O)N1CCC[C@H]1C(=O)N[C@@H](CO)C(=O)N[C@@H](CO)C(=O)NCC(=O)N[C@@H](C)C(=O)N1CCC[C@H]1C(=O)N1CCC[C@H]1C(=O)N1CCC[C@H]1C(=O)N[C@@H](CO)C(N)=O)[C@@H](C)CC)C(=O)O) [exendin-4 peptide analogue SEQ ID NO: 53] | 93.2 pM | 7.9 pM | 13.6 pM
